For test [1], the target named is T1, His-PGK1 (UniProt P00558 1-417).
T1 sequence (looked up): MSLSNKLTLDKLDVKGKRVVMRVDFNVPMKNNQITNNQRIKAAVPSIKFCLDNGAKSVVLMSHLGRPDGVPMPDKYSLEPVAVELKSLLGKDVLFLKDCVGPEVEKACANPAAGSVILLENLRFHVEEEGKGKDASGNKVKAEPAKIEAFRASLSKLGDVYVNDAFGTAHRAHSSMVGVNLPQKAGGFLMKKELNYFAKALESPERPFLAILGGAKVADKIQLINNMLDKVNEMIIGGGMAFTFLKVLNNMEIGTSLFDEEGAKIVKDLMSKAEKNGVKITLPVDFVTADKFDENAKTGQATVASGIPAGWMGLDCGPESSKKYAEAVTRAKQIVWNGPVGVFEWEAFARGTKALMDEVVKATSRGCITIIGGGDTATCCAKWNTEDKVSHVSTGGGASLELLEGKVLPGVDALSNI
Nature of the test: pull-down.

Test [2] has as its target T2, GST-PGK1 (UniProt P00558 1-417).
T2 sequence (looked up): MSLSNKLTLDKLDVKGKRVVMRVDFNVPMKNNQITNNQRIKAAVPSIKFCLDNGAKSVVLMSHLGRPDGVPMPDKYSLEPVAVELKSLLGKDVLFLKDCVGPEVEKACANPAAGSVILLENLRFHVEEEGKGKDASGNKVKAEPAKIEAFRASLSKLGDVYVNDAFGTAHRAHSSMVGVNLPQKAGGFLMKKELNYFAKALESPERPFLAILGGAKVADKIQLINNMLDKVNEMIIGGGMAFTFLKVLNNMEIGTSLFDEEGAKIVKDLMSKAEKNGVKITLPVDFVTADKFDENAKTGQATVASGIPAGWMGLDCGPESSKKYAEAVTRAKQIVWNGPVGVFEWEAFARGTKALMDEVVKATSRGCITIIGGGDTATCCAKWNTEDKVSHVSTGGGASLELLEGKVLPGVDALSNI
Nature of the test: co-sedimentation.

No end group written: not given here.

B1: GST-TfR1-61 (TfR cyto), wild type (domain or fragment, UniProt P02786 1-61, looked up)
chain: MMDQARSAFSNLFGGEPLSYTRFSLARQVDGDNSHVEMKLAVDEEENADNNTKANVTKPKR
Turning to B1, the binding result in test [1] was “binds”.

For HHHHHHSAFSNLFGGEPLSYTRFSL (not fully specified) [His-Tyr peptide (lipid-linked tyrosine-based motif)], the binding result in test [2] is “binds”.

The values above are taken from paper doi:10.1101/2025.10.29.685329 (bioRxiv, 2025).
